B1: F1*; the commonest letter at each place (parent)
chain: GAGACCGCAACTGAAAAGTTGTTATCACTTGTCGTAAGACACTTTGGATGGGTTGAAGTTCTGCACGTAGAAGCAAAAGGC

Variants of: B1
Assay: fraction ligated after 30 min (ligated reads / total reads); higher = more ligase activity
Conditions: with F1*sub RNA substrate (template-directed ligation), 42 °C
Description: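 Chip-synthesised pool of F1* ligase ribozyme variants (all single and double substitutions, single, double and triple deletions in the catalytic core and GAA bulge, plus designed variants) was transcribed with T7 and reacted as a pool with excess substrate F1*sub for 30 min at 42 C in 50 mM EPPS pH 8.5, 25 mM MgCl2. Ligated and unligated bands were separated by PAGE, barcoded by RT and deep sequenced; fraction ligated = ligated reads / total reads per variant, relative activity = FL / FL of wild type (0.826). Sequences are the DNA template of the ribozyme.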
C26G G50A gave a fraction ligated of 0.0221. For C26G G50C, the fraction ligated was 0.0252. For C26G G50T, the fraction ligated was 0.0691. For T25G T32G, the fraction ligated was 0.293. T25G T32C showed a fraction ligated of 0.364. T25G T32A was tested, and the fraction ligated was 0.324. For C26A T45C, the fraction ligated was 0.0795. For C26A T45G, the fraction ligated was 0.0382. In the case of C26A T45A, the fraction ligated is reported as 0.366. C26A A39T was tested, and the fraction ligated was 0.721. C26A A39C was tested, and the fraction ligated was 0.627. With C26A A39G the fraction ligated was 0.75. For A27C G31A, the fraction ligated was 0.824. A27C G31T showed a fraction ligated of 0.789. A27C G31C showed a fraction ligated of 0.835. C26T G46T was tested, and the fraction ligated was 0.758. C26T G46A gave a fraction ligated of 0.835. In the case of C26T G46C, the fraction ligated is reported as 0.81. With A27C C33A the fraction ligated was 0.827. Work on A27C C33G yielded a fraction ligated of 0.815. A27C C33T was tested, and the fraction ligated was 0.795. A27C G34A was tested, and the fraction ligated was 0.809. With A27C G34C the fraction ligated was 0.808. A27C G34T gave a fraction ligated of 0.815. With T25G T35C the fraction ligated was 0.785. In the case of T25G T35G, the fraction ligated is reported as 0.804. Work on T25G T35A yielded a fraction ligated of 0.787. With C26T T43G the fraction ligated was 0.79. Work on C26T T43A yielded a fraction ligated of 0.827. Variant C26T T43C has a fraction ligated of 0.788. Work on A27C A39C yielded a fraction ligated of 0.785. With A27C A39G the fraction ligated was 0.809. A27C A39T showed a fraction ligated of 0.789. C26T A27C was tested, and the fraction ligated was 0.811. With C26T A27T the fraction ligated was 0.808. For C26T A27G, the fraction ligated was 0.771. C26G C42G showed a fraction ligated of 0.7. With C26G C42A the fraction ligated was 0.767. In the case of C26G C42T, the fraction ligated is reported as 0.76. A27C T30A showed a fraction ligated of 0.783. Variant A27C T30G has a fraction ligated of 0.825. A27C T30C gave a fraction ligated of 0.774. Variant A27C T35C has a fraction ligated of 0.813. With A27C T35A the fraction ligated was 0.835. A27C A48C was tested, and the fraction ligated was 0.748. A27C A48T gave a fraction ligated of 0.78. A27C A48G showed a fraction ligated of 0.256. With A27C G38A the fraction ligated was 0.807. In the case of A27C G38C, the fraction ligated is reported as 0.792. For A27C G38T, the fraction ligated was 0.837. Variant T25G T30C has a fraction ligated of 0.372. With T25G T30G the fraction ligated was 0.776. T25G T30A gave a fraction ligated of 0.674. For C26T G47T, the fraction ligated was 0.182. C26T G47C gave a fraction ligated of 0.0296. C26T G47A was tested, and the fraction ligated was 0.843. With C26G T35A the fraction ligated was 0.79. With C26G T35G the fraction ligated was 0.784. With C26G T35C the fraction ligated was 0.772. In the case of A27C A56G, the fraction ligated is reported as 0.742. Variant A27C A56T has a fraction ligated of 0.787. A27C A56C showed a fraction ligated of 0.75. With C26T C40G the fraction ligated was 0.817. C26T C40A was tested, and the fraction ligated was 0.797. Work on C26T C40T yielded a fraction ligated of 0.833. In the case of C26G A57T, the fraction ligated is reported as 0.312. C26G A57C showed a fraction ligated of 0.33. C26G A57G showed a fraction ligated of 0.576. For C26G C28T, the fraction ligated was 0.558. For C26G C28G, the fraction ligated was 0.611. Work on C26G C28A yielded a fraction ligated of 0.688. Work on C26G A27C yielded a fraction ligated of 0.782. Variant C26G A27G has a fraction ligated of 0.694. Work on C26G A27T yielded a fraction ligated of 0.411. C26A A41T showed a fraction ligated of 0.768. C26A A41C showed a fraction ligated of 0.21. Variant C26A A41G has a fraction ligated of 0.761. With A27C A41C the fraction ligated was 0.782. With A27C A41G the fraction ligated was 0.781. For A27C A41T, the fraction ligated was 0.785. For C26A G34T, the fraction ligated was 0.808. Work on C26A G34C yielded a fraction ligated of 0.805. Work on C26A G34A yielded a fraction ligated of 0.786. C26T G55A was tested, and the fraction ligated was 0.811. C26T G55T gave a fraction ligated of 0.815. Variant C26T G55C has a fraction ligated of 0.3. C26T A39G gave a fraction ligated of 0.819. C26T A39T showed a fraction ligated of 0.823. C26T A39C showed a fraction ligated of 0.789. Variant C26A T49C has a fraction ligated of 0.0891. With C26A T49A the fraction ligated was 0.216. C26A T49G showed a fraction ligated of 0.502. Work on C26T A41C yielded a fraction ligated of 0.771. With C26T A41G the fraction ligated was 0.813. C26T A41T gave a fraction ligated of 0.796. In the case of C26G A36T, the fraction ligated is reported as 0.773. C26G A36C showed a fraction ligated of 0.0567. With C26G A36G the fraction ligated was 0.767. Variant C26G T45A has a fraction ligated of 0.0653. With C26G T45G the fraction ligated was 0.0236. C26G T45C was tested, and the fraction ligated was 0.00783. C26G G46T showed a fraction ligated of 0.417. With C26G G46C the fraction ligated was 0.719. With C26G G46A the fraction ligated was 0.785. Variant C26G G47T has a fraction ligated of 0.159. For C26G G47A, the fraction ligated was 0.8. With C26G G47C the fraction ligated was 0.404. C26T T29G showed a fraction ligated of 0.816. C26T T29A showed a fraction ligated of 0.845. C26T T29C showed a fraction ligated of 0.848. For C26A A27C, the fraction ligated was 0.842. Variant C26A A27G has a fraction ligated of 0.747. In the case of C26A A27T, the fraction ligated is reported as 0.747. For C26A A48C, the fraction ligated was 0.366. With C26A A48G the fraction ligated was 0.123. C26A A48T was tested, and the fraction ligated was 0.00798. Variant C26G G34C has a fraction ligated of 0.371. With C26G G34A the fraction ligated was 0.357. C26G G34T gave a fraction ligated of 0.718. C26G G55C was tested, and the fraction ligated was 0.00657. C26G G55T was tested, and the fraction ligated was 0.0355. C26G G55A gave a fraction ligated of 0.169. C26T G38A gave a fraction ligated of 0.823. For C26T G38C, the fraction ligated was 0.81. For C26T G38T, the fraction ligated was 0.478. With C26T T32G the fraction ligated was 0.801. C26T T32A gave a fraction ligated of 0.701. With C26T T32C the fraction ligated was 0.792. C26A T30C showed a fraction ligated of 0.781. Work on C26A T30A yielded a fraction ligated of 0.791. In the case of C26A T30G, the fraction ligated is reported as 0.802. With C26A T29C the fraction ligated was 0.804. Work on C26A T29G yielded a fraction ligated of 0.784. In the case of C26A T29A, the fraction ligated is reported as 0.786. A27C C28A showed a fraction ligated of 0.807. A27C C28G was tested, and the fraction ligated was 0.807. Variant A27C C28T has a fraction ligated of 0.819. With C26A C40T the fraction ligated was 0.814. Work on C26A C40G yielded a fraction ligated of 0.793. C26A C40A gave a fraction ligated of 0.755. For C26T A56C, the fraction ligated was 0.29. C26T A56G gave a fraction ligated of 0.768. C26T A56T showed a fraction ligated of 0.867. In the case of C26T G31A, the fraction ligated is reported as 0.342. Variant C26T G31C has a fraction ligated of 0.408. For C26T G31T, the fraction ligated was 0.585. For C26T T30G, the fraction ligated was 0.861. In the case of C26T T30A, the fraction ligated is reported as 0.832. C26T T30C showed a fraction ligated of 0.839. Variant C26A C42A has a fraction ligated of 0.773. Work on C26A C42T yielded a fraction ligated of 0.793. C26A C42G gave a fraction ligated of 0.731. With C26A G46C the fraction ligated was 0.744. Work on C26A G46T yielded a fraction ligated of 0.449. C26A G46A showed a fraction ligated of 0.73. Variant C26G A37T has a fraction ligated of 0.707. With C26G A37C the fraction ligated was 0.674. Variant C26G A37G has a fraction ligated of 0.762. For A27C A36C, the fraction ligated was 0.793. A27C A36T gave a fraction ligated of 0.817. A27C A36G showed a fraction ligated of 0.821. Work on C26G T44G yielded a fraction ligated of 0.776. C26G T44C was tested, and the fraction ligated was 0.731. With C26G T44A the fraction ligated was 0.781. With C26T A48C the fraction ligated was 0.418. Work on C26T A48G yielded a fraction ligated of 0.756. For C26T A48T, the fraction ligated was 0.0105.
